Results on one molecule are retold here after article PMC12297555.

The data set deals with T1, ScoC (Geobacillus kaustophilus strain T-1, UniProt Q5L293 1-201).
T1 sequence: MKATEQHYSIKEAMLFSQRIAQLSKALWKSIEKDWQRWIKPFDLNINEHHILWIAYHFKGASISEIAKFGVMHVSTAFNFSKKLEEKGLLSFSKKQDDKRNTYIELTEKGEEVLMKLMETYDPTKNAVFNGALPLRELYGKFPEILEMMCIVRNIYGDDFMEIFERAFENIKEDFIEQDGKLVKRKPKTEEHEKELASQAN
The data set can be described thus: X-ray crystallography.

B1: Oligo 4, 23-bp symmetric palindromic dsDNA (dsDNA)
DNA 1: AATATTATTAACAAAATAATATT
DNA 2: AATATTATTTTGTTAATAATATT
As to B1, the binding result is “binds”.
